# Results: the supplement of paper PMC9170038
# Test system: MS2 coat protein
# Assay: apparent KD of MS2 coat protein; designed switch direction (-1 OFF switch, 1 ON switch): -1; higher = weaker reporter binding
# Outline: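 For each design, the apparent KD is the median over clusters of curves fitted to normalised cluster fluorescence. Clusters held RNA switches with common flanks, transcribed on Illumina chips by stalled E. coli RNA polymerase. These were titrated with SNAP-549-labelled MS2 coat protein, doubling from 0.7 or 1.5 nM to 3 µM, without input, with 200 uM small-molecule ligand, or with an oligonucleotide input.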
# [1] = Eterna round: R95, input ligand: microRNA oligo, concentration not stated
# [2] = input ligand: microRNA oligo, concentration not stated
# [3] = Eterna round: R95, input ligand: FMN 200 uM
# [4] = Eterna round: R95, input ligand: none
sequence,measurement,setting,value
"AUAAUGUGAGGAUAUAUGCAUCACGGUGAUACACCGUGAUGAUAGAAGGUACAUGAGGAUCACCCAUGUAGGGC [Mod of Anonveat 16 - Jieux - Exclusion 4] (Eterna round: R97, puzzle: Exclusion 4)",apparent KD of MS2 coat protein,input ligand: FMN 200 uM,51.2 nM
same,apparent KD of MS2 coat protein,input ligand: none,37.8 nM
"AUAAUGUGAGGAUAUCAGUCGACUAGCUGCGGCUAGUCGACUGAGAAGGUACAUGAGGAUCACCCAUGUAGAUC [E4/20-A3] (Eterna round: R97, puzzle: Exclusion 4)",apparent KD of MS2 coat protein,input ligand: FMN 200 uM,77.9 nM
same,apparent KD of MS2 coat protein,input ligand: none,29.4 nM
"AUAAUGUGAGGAUAUCAGUCGACUAGCUUCGGCUAGUCGACUGAGAAGGUACAUGAGGAUCACCCAUGUAGAUC [E4/20-A1] (Eterna round: R97, puzzle: Exclusion 4)",apparent KD of MS2 coat protein,input ligand: FMN 200 uM,59.9 nM
same,apparent KD of MS2 coat protein,input ligand: none,40.9 nM
"AUAAUUUAAGGAUAUACGUGGCGAGCCAGAUAGCUGGGUCUACAUGAGGAUCACCCAUGUAGAAGGUAAGGAUU [Eternabot (L1) Solution 23] (Eterna round: R97, puzzle: Exclusion 2)",apparent KD of MS2 coat protein,input ligand: FMN 200 uM,17.8 nM
same,apparent KD of MS2 coat protein,input ligand: none,18.6 nM
"AUACUCGUAGGAUAUGGCAAGCUGAACAUGAGGAUCACCCAUGUGUUCUACAGAUCUGGGUUAGAAGGACGUUAUU [Eternabot (L2) Solution 39] (Eterna round: R97, puzzle: Exclusion 5)",apparent KD of MS2 coat protein,input ligand: FMN 200 uM,49.3 nM
same,apparent KD of MS2 coat protein,input ligand: none,59.7 nM
AUACUCUUUGUGAGGAUAUCGUUUUCUUUACGGUUCGAGAAGGCACAUGAGGAUCACCCAUGUUUGACGUGAAU [JR_BMOE4_Sub094] (puzzle: Brourd's mod of Exclusion 4),apparent KD of MS2 coat protein,[1],21.2 nM
AUAUAAAUAUAGGAUAUCGAAUUUAUUAAUUAUCGAGAAGGAUAAACAUGAGGAUCACCCAUGUGGUAUCAUGG [Mat - Exclusion 6 - JL Mod - D40] (puzzle: Exclusion 6),apparent KD of MS2 coat protein,[1],270 nM
"AUCAGCUCGUCAGGAUAUACAUGAGGAUCACCCAUGUGAUCAAUAGCAGCUUCGGCUGCAUACAUGUAGAAGGGACGAGCUGAU [ENG2/6-B3] (Eterna round: R96, puzzle: Exclusion NG 2)",apparent KD of MS2 coat protein,input ligand: FMN 200 uM,50 nM
same,apparent KD of MS2 coat protein,[2],234 nM
same,apparent KD of MS2 coat protein,input ligand: none,821 nM
"AUCAGCUCGUGAGGAUAUACAUCACUGCUUCGGCAGUGUAUUAAGAUCACAUGAGGAUCACCCAUGUAGAAGGCACGAGCUGAU [ENG2/2-A3] (Eterna round: R96, puzzle: Exclusion NG 2)",apparent KD of MS2 coat protein,input ligand: FMN 200 uM,437 nM
same,apparent KD of MS2 coat protein,[2],31.7 nM
same,apparent KD of MS2 coat protein,input ligand: none,38.3 nM
"AUCAGCUCGUGAGGAUAUACAUGAGGAUCACCCAUGUGAUCAAUAGCAGCUUCGGCUGCAUUAAUGUAGAAGGUACGAGCUGAU [ENG2/5-C3] (Eterna round: R96, puzzle: Exclusion NG 2)",apparent KD of MS2 coat protein,input ligand: FMN 200 uM,114 nM
same,apparent KD of MS2 coat protein,[2],216 nM
same,apparent KD of MS2 coat protein,input ligand: none,961 nM
"AUCAGCUCGUGAGGAUAUACAUGAUAGAUCGAUUAAUUAAUUAAUUUAACAUGAGGAUCACCCAUGUAGAAGGUACGAGCUGAU [ENG2/1-C3] (Eterna round: R96, puzzle: Exclusion NG 2)",apparent KD of MS2 coat protein,[2],39.6 nM
"AUCAGCUCGUGAGGAUAUAUAUAUACAUGAGGAUCACCCAUGUUAGAUCAGCUUCGGCAGUAUAUAUAGAAGGCACGAGCUGAU [ENG2/15-A2] (Eterna round: R96, puzzle: Exclusion NG 2)",apparent KD of MS2 coat protein,input ligand: FMN 200 uM,233 nM
same,apparent KD of MS2 coat protein,[2],90.6 nM
same,apparent KD of MS2 coat protein,input ligand: none,79.6 nM
"AUCAGCUCGUGAGGAUAUGCACAUGAGGAUCACCCAUGUAAGAUCAAGCUGCUUCGGCAGCAAGUGCAGAAGGUACGAGCUGAU [ENG2/9-C2] (Eterna round: R96, puzzle: Exclusion NG 2)",apparent KD of MS2 coat protein,input ligand: FMN 200 uM,206 nM
same,apparent KD of MS2 coat protein,[2],128 nM
same,apparent KD of MS2 coat protein,input ligand: none,234 nM
"AUCCUCACUUUUUAAGCGAACAUGAGGAUCACCCAUGUACAAGCUUUUUGCUCGGCUUAUAAAGGGUUGGAAACAAC [Alacar Attempt 3] (Eterna round: R97, puzzle: Sensor, turn-off variant 1)",apparent KD of MS2 coat protein,input ligand: FMN 200 uM,16.8 nM
same,apparent KD of MS2 coat protein,input ligand: none,16 nM
"AUCCUCUAGAAGGAUAUGCAGGUUGAAUAAACCGCAGAAGGUUUUACAUGAGGAUCACCCAUGUGUAUAACACA [Eternabot (L2) Solution 100] (Eterna round: R97, puzzle: Exclusion 6)",apparent KD of MS2 coat protein,input ligand: FMN 200 uM,230 nM
same,apparent KD of MS2 coat protein,input ligand: none,165 nM
"AUCGUGCAGCUUUGCUGUACGAGUACAUGAGGAUCACCCAUGUAGGAUAUGGUACGCUUUGCGUGCUAGAAGGAUAUGUGUUUG [EX ENG3 1.44] (Eterna round: R96, puzzle: Exclusion NG 3)",apparent KD of MS2 coat protein,input ligand: FMN 200 uM,58.6 nM
same,apparent KD of MS2 coat protein,[2],29.8 nM
same,apparent KD of MS2 coat protein,input ligand: none,43.4 nM
"AUCGUGUGAGGAUAUCGAUGUUGGACGUCUAGGUCUGAGCGCGAGAAGGCACAUGAGGAUCACCCAUGUAAGGG [jl-ex4-4.24 ViennaUCT mod] (Eterna round: R97, puzzle: Exclusion 4)",apparent KD of MS2 coat protein,input ligand: FMN 200 uM,220 nM
same,apparent KD of MS2 coat protein,input ligand: none,896 nM
AUGAGACAUGAGGAUCACCCAUGUGAGGAUAUGUAUGGAUGUUGGAAAGAAUGAGAGAACAGAAGGCACGUAGA [JR_Exclu1_Sub063] (puzzle: Exclusion 1),apparent KD of MS2 coat protein,[3],93.1 nM
same,apparent KD of MS2 coat protein,[1],104 nM
same,apparent KD of MS2 coat protein,[4],149 nM
"AUGAGCAGACGGAGAUCCAACAUGAGGAUCACCCAUGUCUCAUAAGCUUUUUGUUCAUCUUAUUGUACCUUGGUGCA [Mat - Sensor v3 - turn-off var 1 - JL Mod - D25] (Eterna round: R96, puzzle: Sensor v3, turn-off variant 1)",apparent KD of MS2 coat protein,input ligand: FMN 200 uM,242 nM
same,apparent KD of MS2 coat protein,[2],25.4 nM
same,apparent KD of MS2 coat protein,input ligand: none,198 nM
"AUGAGCAGACGGAGAUCCAACAUGAGGAUCACCCAUGUCUCAUAAGCUUUUUGUUCAUCUUAUUGUACCUUGGUGCA [Mat - Sensor v3 - turn-off var 1 - JL Mod - D25] (puzzle: Sensor v3, turn-off variant 1)",apparent KD of MS2 coat protein,[3],57.2 nM
same,apparent KD of MS2 coat protein,[1],30.5 nM
same,apparent KD of MS2 coat protein,[4],55.5 nM
"AUGAGGUUAGGAUAUACAUGAGGAUCACCCAUGUUGAAGGGUUAGGUAGGCGGAGCUGGUAGAAGGAACGGAGC [JR_Exclu3_Sub057] (Eterna round: R96, puzzle: Exclusion 3)",apparent KD of MS2 coat protein,input ligand: FMN 200 uM,44.3 nM
same,apparent KD of MS2 coat protein,[2],31.9 nM
same,apparent KD of MS2 coat protein,input ligand: none,55.3 nM
AUGAGGUUAGGAUAUACAUGAGGAUCACCCAUGUUGAAGGGUUAGGUAGGCGGAGCUGGUAGAAGGAACGGAGC [JR_Exclu3_Sub057] (puzzle: Exclusion 3),apparent KD of MS2 coat protein,[1],38.8 nM
"AUGAUACAUGAGGAUCACCCAUGUGAGGAUAUGAAGUUAUAAUACAUACUAUACAUCUUCAGAAGGCAUAUGUG [E1 S1 6/16] (Eterna round: R97, puzzle: Exclusion 1)",apparent KD of MS2 coat protein,input ligand: FMN 200 uM,229 nM
same,apparent KD of MS2 coat protein,input ligand: none,109 nM
"AUGCGUGGCUAGGAUAUUGAGGAAUUUAGUCAGCGAGAAGGAGCCACAUGAGGAUCACCCAUGUGGUGAAGCUC [jl-ex6-4.59 ViennaUCT mod] (Eterna round: R97, puzzle: Exclusion 6)",apparent KD of MS2 coat protein,input ligand: FMN 200 uM,70.5 nM
same,apparent KD of MS2 coat protein,input ligand: none,19.1 nM
"AUGCUCCGUGUAGGAUAUCGCCGUACUACUCGGCGAGAAGGACAUGAGGAUCACCCAUGUAUGUUAUUAUCACGUGUGGCGCGC [Design 49] (Eterna round: R96, puzzle: Exclusion NG 1)",apparent KD of MS2 coat protein,input ligand: FMN 200 uM,45.7 nM
same,apparent KD of MS2 coat protein,[2],14 nM
same,apparent KD of MS2 coat protein,input ligand: none,19.7 nM
AUGGACGCAGGAUAUACAUGAGGAUCACCCAUGUGAGGUUGGUAAGUAGGAAGUGAAGGUAGAAGGGCGAGAGU [JR_Exclu3_Sub098] (puzzle: Exclusion 3),apparent KD of MS2 coat protein,[3],209 nM
same,apparent KD of MS2 coat protein,[1],84.2 nM
same,apparent KD of MS2 coat protein,[4],76.8 nM
AUGGACGCAGGAUAUACAUGAGGAUCACCCAUGUUAGGGUUAAGAGAAGGAAGGGAGAGUAGAAGGGCGAGAGU [JR_Exclu3_Sub0100] (puzzle: Exclusion 3),apparent KD of MS2 coat protein,[1],110 nM
"AUGGCGUUAGGAUAUACUAUGGGCCUGGACAGUGCACCUCCACAUGAGGAUCACCCAUGUAGAAGGAACUCGAG [Eternabot (L2) Solution 99] (Eterna round: R97, puzzle: Exclusion 2)",apparent KD of MS2 coat protein,input ligand: FMN 200 uM,26.9 nM
same,apparent KD of MS2 coat protein,input ligand: none,20.8 nM
"AUGGUUCGAUUAGGAUAUUAUAGAUUGAAUAGUAUGAUUUACAUGAGGAUCACCCAUGUUACAUAUAAGAAGGAAUCGAAUCAU [JR_ExcNG2_Sub087] (Eterna round: R96, puzzle: Exclusion NG 2)",apparent KD of MS2 coat protein,[2],11.5 nM
"AUGUACCGGUGAGGAUAUUUUUAAUAGAGCUUUAUGAUAUACAUGAGGAUCACCCAUGUUACGUUAAAGAAGGCAUCGGAUUAA [Mat - Exclusion NG 2 - Mod of JL - D96] (Eterna round: R96, puzzle: Exclusion NG 2)",apparent KD of MS2 coat protein,[2],14 nM
"AUGUAGGAAGGAUAUGCGUCGGCAUGAAAUCCUUGUUGGCCACAUGAGGAUCACCCAUGUAGAAGGUUCACGUA [Eternabot (L2) Solution 10] (Eterna round: R97, puzzle: Exclusion 2)",apparent KD of MS2 coat protein,input ligand: FMN 200 uM,48.8 nM
same,apparent KD of MS2 coat protein,input ligand: none,52.7 nM
"AUGUUGCGAGGAUAUAUAUGGAGGUUAAAAUUUGAUAUGGAACAUGAGGAUCACCCAUGUAGAAGGUGCAUAAC [JR_Ex2_Sub039] (Eterna round: R97, puzzle: Exclusion 2)",apparent KD of MS2 coat protein,input ligand: FMN 200 uM,155 nM
same,apparent KD of MS2 coat protein,input ligand: none,57.5 nM
AUUAAAAUAUAGGAUAUCGAAUAUAUUAUUUAACGAGAAGGAUGAACAUGAGGAUCACCCAUGUGGUAUCAUGG [Mat - Exclusion 6 - JL Mod - D36] (puzzle: Exclusion 6),apparent KD of MS2 coat protein,[3],157 nM
same,apparent KD of MS2 coat protein,[1],298 nM
same,apparent KD of MS2 coat protein,[4],402 nM
"AUUAAUGUCAAAGGAUAUCAGCACGAUUAGUGCUGAGAAGGUUGAACAUGAGGAUCACCCAUGUAGAUCAUUAAUAAUUUAAUU [ENG1/10-B2] (Eterna round: R96, puzzle: Exclusion NG 1)",apparent KD of MS2 coat protein,input ligand: FMN 200 uM,26.4 nM
same,apparent KD of MS2 coat protein,[2],17.9 nM
same,apparent KD of MS2 coat protein,input ligand: none,16.9 nM
